According to patent US20250289897A1, “LEPTIN RECEPTOR AGONISTIC ANTIBODY AS MONO OR COMBO THERAPIES TO TREAT OBESITY” (ELI LILLY AND COMPANY, priority 2024, published 2025):

Target: T1, rat-LEPR (Rattus norvegicus, UniProt Q62959)
T1 construct: introducing DNA plasmids encoding full-length LEPR of different species and STAT3-luciferase reporter gene into HEK293 cells; expressed in transfected cells; host or cells: HEK293 (HEK293-STAT3Luc-ratLepR3)
T1 sequence (Q62959 22-1162): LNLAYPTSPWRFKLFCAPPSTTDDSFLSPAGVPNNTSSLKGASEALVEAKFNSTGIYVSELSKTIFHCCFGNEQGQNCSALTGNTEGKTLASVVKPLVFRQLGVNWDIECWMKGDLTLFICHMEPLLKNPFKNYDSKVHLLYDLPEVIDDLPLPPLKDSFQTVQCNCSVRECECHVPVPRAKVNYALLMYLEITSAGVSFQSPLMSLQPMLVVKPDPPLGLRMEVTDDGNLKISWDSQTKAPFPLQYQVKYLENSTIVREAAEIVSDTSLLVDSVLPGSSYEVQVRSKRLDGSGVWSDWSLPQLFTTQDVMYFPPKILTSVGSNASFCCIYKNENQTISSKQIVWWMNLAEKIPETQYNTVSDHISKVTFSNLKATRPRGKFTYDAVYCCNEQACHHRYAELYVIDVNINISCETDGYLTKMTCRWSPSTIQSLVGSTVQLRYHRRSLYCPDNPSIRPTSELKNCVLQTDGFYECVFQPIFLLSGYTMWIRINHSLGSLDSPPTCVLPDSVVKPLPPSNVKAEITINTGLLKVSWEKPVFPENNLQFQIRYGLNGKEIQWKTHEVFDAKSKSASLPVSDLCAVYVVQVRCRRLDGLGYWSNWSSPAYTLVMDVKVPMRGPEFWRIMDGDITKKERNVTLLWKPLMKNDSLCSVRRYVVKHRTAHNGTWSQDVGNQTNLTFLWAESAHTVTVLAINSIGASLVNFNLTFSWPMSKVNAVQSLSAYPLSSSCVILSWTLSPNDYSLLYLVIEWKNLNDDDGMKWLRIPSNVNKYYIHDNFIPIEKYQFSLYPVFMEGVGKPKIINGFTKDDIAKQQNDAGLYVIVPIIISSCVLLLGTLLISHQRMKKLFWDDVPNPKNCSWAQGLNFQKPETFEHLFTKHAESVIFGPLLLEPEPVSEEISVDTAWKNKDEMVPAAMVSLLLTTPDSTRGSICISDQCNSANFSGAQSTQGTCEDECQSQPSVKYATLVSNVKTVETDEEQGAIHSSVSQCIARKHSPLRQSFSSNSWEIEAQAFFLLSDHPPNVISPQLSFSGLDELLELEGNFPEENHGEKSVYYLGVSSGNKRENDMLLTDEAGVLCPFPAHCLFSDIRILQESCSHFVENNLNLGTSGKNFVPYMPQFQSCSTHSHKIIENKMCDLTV
Assay: STAT3-luciferase reporter assay in HEK293-STAT3Luc-ratLepR3 cells
Type: cell-based
Excerpt: LEPR is a cell surface single-pass transmembrane receptor. Activation of LEPR leads to phosphorylation of intracellular STAT3 (pSTAT3) and subsequent target gene transcription. To measure LEPR activation by anti-LEPR antibodies in the present disclosure, five independent STAT-luciferase reporter cell lines were established by introducing DNA plasmids encoding full-length LEPR of different species and STAT3-luciferase reporter gene into HEK293 cells (Table 4). […]
Before plating the cells for luciferase assays, the poly-D-Lysine coated 96-well plates (Corning Inc, #354651) were rinsed once with phosphate buffered solution (PBS). […] Cell lysing and One-Glo luciferase substrate solution (Promega, #E6120) were then added to each well, and relative luciferase units (RLUs) were measured on a ClarioStar plate reader. For each reporter cell line, positive control LEPR activation was calculated as the average RLUs stimulated by 20 nM recombinant human leptin protein (SEQ ID NO:27) minus the average RLUs of unstimulated cells and was set as maximum LEPR activation (100%). […]

- EC50 (antibodies at concentrations up to 90 nM, read-out: EC50 (nM) ± SEM): 6.29 ± 0.62 nM
- Agonism (%) ± SEM (vs 20 nM recombinant human leptin, antibodies up to 90 nM): 106.1%
Substance: human leptin: recombinant human leptin protein (SEQ ID NO:27), positive control
